Measured values from patent publication US20210292413A1.

Experiments:
[1] = target: T1, human Siglec-3 on cells (moDC, PBMC of CHB patients) (human), P20138; assay: co-IP (IP: Siglec-3) from moDC, lane Mock; Western blot, densitometry [A]; conditions: remark: other sources report otherwise
[2] = target: T1, human Siglec-3 on cells (moDC, PBMC of …); assay: co-IP (IP: Siglec-3) from moDC treated with HBV (hHBV); Western blot, densitometry, fold of Mock [A]; conditions: remark: other sources report otherwise
[3] = target: T1, human Siglec-3 on cells (moDC, PBMC of …); assay: co-IP (IP: Siglec-3) from moDC treated with anti-Siglec-3 mAb 2B9; Western blot, densitometry, fold of Mock [A]; conditions: remark: other sources report otherwise
[4] = target: T1, human Siglec-3 on cells (moDC, PBMC of …); assay: co-IP (IP: Siglec-3) from moDC treated with anti-Siglec-3 mAb 10C8; Western blot, densitometry, fold of Mock [A]; conditions: remark: other sources report otherwise
[5] = target: T1, human Siglec-3 on cells (moDC, PBMC of …); assay: co-IP (IP: Siglec-3) from moDC, HBV +, 10C8 -; Western blot, densitometry, normalized to the untreated control [E]; conditions: remark: other sources report otherwise
[6] = target: T1, human Siglec-3 on cells (moDC, PBMC of …); assay: co-IP (IP: Siglec-3) from moDC, HBV -, 10C8 +; Western blot, densitometry, normalized to the untreated control [E]; conditions: remark: other sources report otherwise
[7] = target: T1, human Siglec-3 on cells (moDC, PBMC of …); assay: co-IP (IP: Siglec-3) from moDC, HBV -, 10C8 -; Western blot, densitometry, normalized to the untreated control [E]; conditions: remark: other sources report otherwise
[8] = target: T1, human Siglec-3 on cells (moDC, PBMC of …); assay: co-IP (IP: Siglec-3) from moDC incubated with hHBV for 0 min; Western blot, densitometry, normalized to the starting point [E]
[9] = target: T1, human Siglec-3 on cells (moDC, PBMC of …); assay: co-IP (IP: Siglec-3) from moDC incubated with hHBV for 15 min; Western blot, densitometry, normalized to the starting point [E]
[10] = target: T1, human Siglec-3 on cells (moDC, PBMC of …); assay: co-IP (IP: Siglec-3) from moDC incubated with hHBV for 30 min; Western blot, densitometry, normalized to the starting point [E]
[11] = target: T1, human Siglec-3 on cells (moDC, PBMC of …); assay: co-IP (IP: Siglec-3) from moDC incubated with hHBV for 60 min; Western blot, densitometry, normalized to the starting point [E]
[12] = target: T1, human Siglec-3 on cells (moDC, PBMC of …); assay: co-IP (IP: Siglec-3) from moDC incubated 30 mins with 0 copies/mL hHBV; Western blot, densitometry, normalized to the first lane [F]; conditions: remark: other sources report otherwise
[13] = target: T1, human Siglec-3 on cells (moDC, PBMC of …); assay: co-IP (IP: Siglec-3) from moDC incubated 30 mins with 10^8 copies/mL hHBV; Western blot, densitometry, normalized to the first lane [F]; conditions: remark: other sources report otherwise
[14] = target: T1, human Siglec-3 on cells (moDC, PBMC of …); assay: co-IP (IP: Siglec-3) from moDC incubated 30 mins with 10^9 copies/mL hHBV; Western blot, densitometry, normalized to the first lane [F]; conditions: remark: other sources report otherwise
[15] = target: T1, human Siglec-3 on cells (moDC, PBMC of …); assay: co-IP (IP: Siglec-3) from moDC incubated 30 mins with 3x10^8 copies/mL hHBV; Western blot, densitometry, normalized to the first lane [F]; conditions: remark: other sources report otherwise
[16] = target: T1, human Siglec-3 on cells (moDC, PBMC of …); assay: co-IP (IP: Siglec-3) from moDC, HBV +, 10C8 + (10C8 given 1 hour before HBV); Western blot, densitometry, normalized to the untreated control [E]; conditions: remark: other sources report otherwise

T1 sequence (P20138 18-364): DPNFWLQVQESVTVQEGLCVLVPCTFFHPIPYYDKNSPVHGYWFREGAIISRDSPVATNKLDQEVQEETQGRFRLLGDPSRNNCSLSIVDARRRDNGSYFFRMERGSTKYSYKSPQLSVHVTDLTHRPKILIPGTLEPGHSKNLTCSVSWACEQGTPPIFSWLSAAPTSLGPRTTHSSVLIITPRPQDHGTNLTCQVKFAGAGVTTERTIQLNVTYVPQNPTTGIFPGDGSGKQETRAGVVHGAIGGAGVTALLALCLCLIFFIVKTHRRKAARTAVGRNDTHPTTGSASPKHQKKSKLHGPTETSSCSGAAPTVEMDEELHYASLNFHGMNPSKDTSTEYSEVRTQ

B1: SHP-2, Q06124 2-593 (protein, human, UniProt Q06124 2-593, looked up)
chain: TSRRWFHPNITGVEAENLLLTRGVDGSFLARPSKSNPGDFTLSVRRNGAVTHIKIQNTGDYYDLYGGEKFATLAELVQYYMEHHGQLKEKNGDVIELKYPLNCADPTSERWFHGHLSGKEAEKLLTEKGKHGSFLVRESQSHPGDFVLSVRTGDDKGESNDGKSKVTHVMIRCQELKYDVGGGERFDSLTDLVEHYKKNPMVETLGTVLQLKQPLNTTRINAAEIESRVRELSKLAETTDKVKQGFWEEFETLQQQECKLLYSRKEGQRQENKNKNRYKNILPFDHTRVVLHDGDPNEPVSDYINANIIMPEFETKCNNSKPKKSYIATQGCLQNTVNDFWRMVFQENSRVIVMTTKEVERGKSKCVKYWPDEYALKEYGVMRVRNVKESAAHDYTLRELKLSKVGQGNTERTVWQYHFRTWPDHGVPSDPGGVLDFLEEVHHKQESIMDAGPVVVHCSAGIGRTGTFIVIDILIDIIREKGVDCDIDVPKTIQMVRSQRSGMVQTEAQYRFIYMAVQHYIETLQRRIEEEQKSKRKGHEYTNIKYSLADQTSGDQSPLPPCTPTPPCAEMREDSARVYENVGLMQQQKSFR
[1]
  fold change of SHP-2 co-precipitated with Siglec-3: 1 fold
[2]
  fold change of SHP-2 co-precipitated with Siglec-3: 1.2 fold
[3]
  fold change of SHP-2 co-precipitated with Siglec-3: 4.3 fold
[4]
  fold change of SHP-2 co-precipitated with Siglec-3: 1.3 fold
[5]
  fold change of SHP-2 co-precipitated with Siglec-3: 2.7 fold
[6]
  fold change of SHP-2 co-precipitated with Siglec-3: 1.2 fold
[7]
  fold change of SHP-2 co-precipitated with Siglec-3: 1 fold
[8]
  fold change of SHP-2 co-precipitated with Siglec-3: 1 fold
[9]
  fold change of SHP-2 co-precipitated with Siglec-3: 1.5 fold
[10]
  fold change of SHP-2 co-precipitated with Siglec-3: 2.4 fold
[11]
  fold change of SHP-2 co-precipitated with Siglec-3: 1.3 fold
[12]
  fold change of SHP-2 co-precipitated with Siglec-3: 1 fold
[13]
  fold change of SHP-2 co-precipitated with Siglec-3: 1.1 fold
[14]
  fold change of SHP-2 co-precipitated with Siglec-3: 1.6 fold
[15]
  fold change of SHP-2 co-precipitated with Siglec-3: 1.2 fold
[16]
  fold change of SHP-2 co-precipitated with Siglec-3: 1.6 fold
